Source: patent US11278600B2, “Human alpha-galactosidase variants” (Codexis, Inc., priority 2014, dated 2022)

Key:
Type in all cases: biochemical
[1] = HTP-analysis of supernatants pretreated with acid (MUGal hydrolysis); details: challenge at pH 4.2; activity of the variant/activity of Rd2BB (SEQ ID NO: 10); yeast culture supernatant
Summary of the method: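 GLA variants were secreted from INVSc1 yeast grown 66-84 h at 30° C. in SD-Ura with 2% glucose; supernatants were mixed with McIlvaine buffer pH 3.3-4.3 and held at 37° C. for 1-3 h. Residual activity on MUGal at pH 4.8 was then measured by fluorescence.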

[2] = HTP-analysis of supernatants pretreated with base (MUGal hydrolysis); details: challenge at pH 7.6; activity of the variant/activity of Rd2BB (SEQ ID NO: 10); yeast culture supernatant
Summary of the method: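 Supernatants from INVSc1 yeast expressing GLA variants (SD-Ura, 66-84 h, 30° C) were mixed with McIlvaine buffer pH 7.0-8.2 or 200 mM sodium bicarbonate pH 9.1-9.7 and held 1-18 h at 37° C. Residual activity was then measured on MUGal at pH 4.8/4.3, 37° C, 30-180 min, by fluorescence (Ex 355/Em 448 nm).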

[3] = HTP-analysis of supernatants pretreated with bovine serum (MUGal hydrolysis); details: activity of the variant/activity of Rd2BB (SEQ ID NO: 10), yeast culture supernatant
Summary of the method: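 Yeast INVSc1 culture supernatants containing secreted GLA variants were mixed with bovine serum (20:80) and held 1 h at 37° C. Serum-treated samples then reacted with MUGal (4 mM stock) in citrate/McIlvaine buffer (pH 4.3/4.8) for 180 min at 37° C., were quenched with sodium carbonate, and read by fluorescence (Ex 355, Em 448 nm).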

[4] = HTP-analysis of yeast culture supernatants, no challenge (MUGal hydrolysis); details: activity of the variant/activity of Rd2BB (SEQ ID NO: 10), yeast culture supernatant
Summary of the method: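 Activity read as 4-methylumbelliferyl α-D-galactopyranoside hydrolysis: fluorescence (355/448 nm) after sodium carbonate stop, following 30-180 min at 37° C with 2 mM MUGal stock at pH 4.6–4.8. Enzyme source is unchallenged culture supernatant of INVSc1 yeast expressing GLA variants, grown 66-84 h at 30° C.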

Molecule	Relative Activity of GLA Variants After Challenge at pH 4.2 [1]	Relative Activity of GLA Variants After Challenge at pH 7.6 [2]	Relative Activity of GLA Variants After Challenge with Serum [3]	Relative Activity of GLA Variants After No Challenge (NC) [4]
259 (protein, Synthetic Polypeptide sequence of Variant No. 259 of mature Human GLA) LDNGLARTPTMGWLHWERFMCNLDCQEEPDSCISEKLFMEMAELMVSEGWKDAGYEYLCIDDCWMAPQRDSEGRLQADPQRFPHGIRQLANYVHSKGLKFGIYADVGNKTCAGFPGSFGYYDIDAQTFADWGVDLLKFDGCYCDSLENLADGYKHMSLALNRTGRSIVYSCEWPLYMWPFQKPNYTEIRQYCNHWRNFADIDDSWASIKSILDWTSFNQERIVDVAGPGGWNDPDMLVIGNFGLSWNQQVTQMALWAIMAAPLFMSNDLRHISPQAKALLQDKDVIAINQDPLGKQGYQLRQGDNFEVWERPLSGLAWAVAVINRQEIGGPRSYTIAVASLGKGVACNPACFITQLLPVKRKLGLYEWTSRLKSHVNPTGTVLLQLENTMQMSLKDLL	+ (+ = 0.5 to 1.5 relative activity over Rd2BB (SEQ ID NO: 10))	+ (+ = 0.5 to 1.5 relative activity over Rd2BB (SEQ ID NO: 10))	+ (+ = 0.5 to 1.5 relative activity over Rd2BB (SEQ ID NO: 10))	+ (+ = 0.5 to 1.5 relative activity over Rd2BB (SEQ ID NO: 10))
263 (protein, Synthetic Polypeptide sequence of Variant No. 263 of mature Human GLA) LDNGLARTPTMGWLHWERFMCNLDCQEEPDSCISEKLFMEMAELMVSEGWKDAGYEYLCIDDCWMAPQRDSEGRLQADPQRFPHGIRQLANYVHSKGLKFGIYADVGNKTCAGFPGSFGYYDIDAQTFADWGVDLLKFDGCYCDSLENLADGYKHMSLALNRTGRSIVYSCEWPLYMWPFQKPNYTEIRQYCNHWRNFADIDDSWASIKSILDWTSFNQEKIVDVAGPGGWNDPDMLVIGNFGLSWDQQVTQMALWAIMAAPLFMSNDLRHISPQAKALLQDKDVIAINQDPLGKQGYQLRKGDNFEVWERPLSGLAWAVAVINRQEIGGPRSYTIAVASLGKGVACNPACFITQLLPVKRKLGFYEWTSRLRSHVNPTGTVLLQLENTMQMSLKDLL	++ (++ = 1.5 to 2.5 relative activity over Rd2BB (SEQ ID NO: 10))	++ (++ = 1.5 to 2.5 relative activity over Rd2BB (SEQ ID NO: 10))	+++ (+++ = >2.5 relative activity over Rd2BB (SEQ ID NO: 10))	+ (+ = 0.5 to 1.5 relative activity over Rd2BB (SEQ ID NO: 10))
264 (protein, Synthetic Polypeptide sequence of Variant No. 264 of mature Human GLA) LDNGLARTPTMGWLHWERFMCNLDCQEEPDSCISEKLFMEMAELMVSEGWKDAGYEYLCIDDCWMAPQRDSEGRLQADPQRFPHGIRQLANYVHSKGLKFGIYADVGNKTCAGFPGSFGYYDIDAQTFADWGVDLLKFDGCYCDSLENLADGYKHMSLALNRTGRSIVYSCEWPLYMWPFQKPNYTEIRQYCNHWRNFADIDDSWASIKSILDWTSFNQEKIVDVAGPGGWNDPDMLVIGNFGLSWDQQVTQMALWAIMAAPLFMSNDLRHISPQAKALLQDKDVIAINQDPLGKQGYQLRKGDNFEVWERPLSGLAWAVAVINRQEIGGPRSYTIAVASLGDGVACNPACFITQLLPVKRKLGFYEWTSRLKSHVNPTGTVLLQLENTMQMSLKDLL	++ (++ = 1.5 to 2.5 relative activity over Rd2BB (SEQ ID NO: 10))	+++ (+++ = >2.5 relative activity over Rd2BB (SEQ ID NO: 10))	++ (++ = 1.5 to 2.5 relative activity over Rd2BB (SEQ ID NO: 10))	++ (++ = 1.5 to 2.5 relative activity over Rd2BB (SEQ ID NO: 10))
261 (protein, Synthetic Polypeptide sequence of Variant No. 261 of mature Human GLA) LDNGLARTPTMGWLHWERFMCNLDCQEEPDSCISEKLFMEMAELMVSEGWKDAGYEYLCIDDCWMAPQRDSEGRLQADPQRFPHGIRQLANYVHSKGLKFGIYADVGNKTCAGFPGSFGYYDIDAQTFADWGVDLLKFDGCYCDSLENLADGYKHMSLALNRTGRSIVYSCEWPLYMWPFQKPNYTEIRQYCNHWRNFADIDDSWASIKSILDWTSFNQEKIVDVAGPGGWNDPDMLVIGNFGLSWDQQVTQMALWAIMAAPLFMSNDLRHISPQAKALLQDKDVIAINQDPLGKQGYQLRQGDNFEVWERPLSGLAWAVAVINRQEIGGPRSYTIAVASLGDGVACNPACFITQLLPVKRKLGFYEWTSRLRSHVNPTGTVLLQLENTMQMSLKDLL	++ (++ = 1.5 to 2.5 relative activity over Rd2BB (SEQ ID NO: 10))	++ (++ = 1.5 to 2.5 relative activity over Rd2BB (SEQ ID NO: 10))	+ (+ = 0.5 to 1.5 relative activity over Rd2BB (SEQ ID NO: 10))	++ (++ = 1.5 to 2.5 relative activity over Rd2BB (SEQ ID NO: 10))
260 (protein, Synthetic Polypeptide sequence of Variant No. 260 of mature Human GLA) LDNGLARTPTMGWLHWERFMCNLDCQEEPDSCISEKLFMEMAELMVSEGWKDAGYEYLCIDDCWMAPQRDSEGRLQADPQRFPHGIRQLANYVHSKGLKFGIYADVGNKTCAGFPGSFGYYDIDAQTFADWGVDLLKFDGCYCDSLENLADGYKHMSLALNRTGRSIVYSCEWPLYMWPFQKPNYTEIRQYCNHWRNFADIDDSWASIKSILDWTSFNQERIVDVAGPGGWNDPDMLVIGNFGLSWDQQVTQMALWAIMAAPLFMSNDLRHISPQAKALLQDKDVIAINQDPLGKQGYQLRQGDNFEVWERPLSGLAWAVAMINRQEIGGPRSYTIAVASLGKGVACNPACFITQLLPVKRKLGLYEWTSRLKSHVNPTGTVLLQLENTMQMSLKDLL	+ (+ = 0.5 to 1.5 relative activity over Rd2BB (SEQ ID NO: 10))	+ (+ = 0.5 to 1.5 relative activity over Rd2BB (SEQ ID NO: 10))	+ (+ = 0.5 to 1.5 relative activity over Rd2BB (SEQ ID NO: 10))	+ (+ = 0.5 to 1.5 relative activity over Rd2BB (SEQ ID NO: 10))
262 (protein, Synthetic Polypeptide sequence of Variant No. 262 of mature Human GLA) LDNGLARTPTMGWLHWERFMCNLDCQEEPDSCISEKLFMEMAELMVSEGWKDAGYEYLCIDDCWMAPQRDSEGRLQADPQRFPHGIRQLANYVHSKGLKFGIYADVGNKTCAGFPGSFGYYDIDAQTFADWGVDLLKFDGCYCDSLENLADGYKHMSLALNRTGRSIVYSCEWPLYMWPFQKPNYTEIRQYCNHWRNFADIDDSWASIKSILDWTSFNQEKIVDVAGPGGWNDPDMLVIGNFGLSWDQQVTQMALWAIMAAPLFMSNDLRHISPQAKALLQDKDVIAINQDPLGKQGYQLRKGDNFEVWERPLSGLAWAVAVINRQEIGGPRSYTIAVASLGKGVACNPACFITQLLPVKRKLGLYEWTSRLKSHVNPTGTVLLQLENTMQMSLKDLL	+++ (+++ = >2.5 relative activity over Rd2BB (SEQ ID NO: 10))	+++ (+++ = >2.5 relative activity over Rd2BB (SEQ ID NO: 10))	+++ (+++ = >2.5 relative activity over Rd2BB (SEQ ID NO: 10))	++ (++ = 1.5 to 2.5 relative activity over Rd2BB (SEQ ID NO: 10))
